This data set in a line: label from the status in PepcDB records.

Consider “MAIKSISSSLLTRVLSVYFLLTLIVTAIQIGAEYFDTKRVLIAELQNQQSTFNGSLTRSLWEFNSNQIDTIADGLISIPAIAGVLIRDDAGNILVQLGETTEMSDLPDDNSEGALLPERNGIFGYYDSLIFEFSGHSTKVGDVSLFSTRDIAIDRIKVSLGFIIGNAIIKSIFLIVLFTIAFNRMLNRPLSDLTQQIKGFRLDNLERSRIRLDDQHNNELVLVEQAYNQLLDNIEEYQSDLDRTQKKLKAANRQLDEQNAILEQEVARKTSSLSQVMLDLEQRKNELEMRQEKLEREVGQRRAIENTLRQSNQRLESSLNNLRETQQQLIESEKMASLGGLVAGITHDVNTPIGISVTASSYLREKLDTLDQSLLNKELTQTQLKKFIEEGRESLNLLDSNLHRASDLISSFKQVAVDQASDAIRDINLKSYIEDLVQSLQPHLKKTNHQVRLECADDIFIRCPAGALSQIFTNLILNSLRHAFDGISEGLMIISIRLDGETLQVHYSDNGNGLSEAQLKRLFDPFFTTKRDQGGSGLGTHIVRNLVTQTLSGEISAESEPGKGLSYFFSFSVQVLN”, for which the protein production result is “failed”.

With “MAILLALIPIMMIFICLFLFKQTSLRSSLIAYVVSVGIVLLSPMFQLGISETVHATIKGSLICFIVGYVLFFGIFLFHLMNKMGYIDQVARFLEEVTHDRLLQMLLMCFGICPLIESVSGFGIGFMVAAPIFLSLGYKPFQAVLLSFIGLLASSWGAMATGTIIGSQLINMPLTTLGTNTALLSIPMFAYFVILSLHVVGGWQAVIEKWKEGIGFFLLFSLGIYLSNAYVSVELAGILSSIVTITFGFLIIKLKGKSEQNLMSEHAAATEREVSIIKIISPYIFLTVCILLSRLVPALHDVFRSYAVLDLKSFSYKLEMLYSPGFWLGMTCLFTIIFFRIPSNIIKQSLSQTIKQWIPFAITTTMFIAISELMGASGMHSLLAKTAGETFGTFFVFVAPFIGGIGGFLTGSNAGSNAMFIKLQMQTAQNVALPWQYVTTLQNTASSVATIACPSRITLGAYLCNIPYRENELLKKTTLMIFGAVLLIVVEVIFWYMLRN”, the protein production entry was “failed”.

Regarding “MAINLNDYKRVAQNLKVNKKNMREFLFDFRVNGKRYRKVETLIERTGWNKKDYEREAQLLLIDYRKKVEANTGNLQITSNTRLNELWELYFQTLDKSTSWTFTKESFYNRYLKEPLGKKKLDSIQEHHIMAIIRHLQAEGMATRTVNTTLEILRPLFDFAIKNKALRDNPTRFIVLKKDNTKKIVINGAEMFKRIFEGINDYYSSQPFYRALFLFGFTGRRKGEILKLKWENIDLDNNYYWIEDTKNNEKQKYELPHFIKEALLQIQDTHTGLVFKSPVTGRMLENTDGQMNKLKKHLNMPELTLHYMRNVLVSALAERGTEAITLSGMLGHRDATTINKYLSLSYHNSSKKGNATMGQIIDAEVVE”, the protein production result is on record as “failed”.

Consider “MAIQLKKGNRISLKKEAPGLKKVMLGLGWDMATSSSGGGFFGIFKKPAGSIDLDSGVLCLDSQGKLNSASDFVYYANLNHKSGAIAHQGDNLTGAGEGDDEQIFVDLEQVPATIQSLLFTVTIYQGRQRGQEFGQIKNAFVRLVDLSNNQEIAHYKLSGETYQGKTGMLMAELRREENGWAMTALGDGLDPQDSENLLKKYR”, for which the protein production entry is recorded as “failed”.

“MAIQVKASLRKNPQDKKAAGKYYAQVVLAPEMTQRQIIDQIADRCTVTGSDVKAVLDALMTVIKRNLANGSPIRLGDLGSFRPSVSGIGSENVDKFTASNVKKARVIYVPSAEIKEAVAMYAFSKVGATAEGGNTEKPGGGDIDNPGGGDEEAPDPTVLEHHHHHH”: the protein production result is “not failed”.

As for “MAKAFEEQRRSPDLEALPFEDRIGLLVDREAAERDTRRLTTRLKIAALRQTACVEDVDLRTPRGIDRAVFAKLVEGRWIDRHENLLVTGATGLGKSWLACALGHKACRDNRSVLYHRVPRLFEALALARGDGRYARLLKSLGRAQLLILDDWGLSVLTAAERRDLLEILEDRHGRASTIVTSQLPWTPGMEPLGTPRSPTPFSIASSTTPTASSSPEKACENAAPKPSPLTANQNTDSISHRPLEHHHHHH”, the protein production entry was “failed”.

These data come from a protein production outcome set (Wang et al. 2014).
